Data from publication PMC7889885.

Assays:
[1] = molecular target: T1, human NKCC1 (hNKCC1a, SLC12A2), twin-Strep tagged, as prepared for cryo-EM (human), P55011; test: cryo-EM structure; single-particle cryo-EM of the purified transporter in 20 mM HEPES pH 7.4, 150 mM NaCl, 0.1% digitonin, ~10 mg/ml; C2 symmetry imposed; details: remark: other sources report otherwise
T1 chain: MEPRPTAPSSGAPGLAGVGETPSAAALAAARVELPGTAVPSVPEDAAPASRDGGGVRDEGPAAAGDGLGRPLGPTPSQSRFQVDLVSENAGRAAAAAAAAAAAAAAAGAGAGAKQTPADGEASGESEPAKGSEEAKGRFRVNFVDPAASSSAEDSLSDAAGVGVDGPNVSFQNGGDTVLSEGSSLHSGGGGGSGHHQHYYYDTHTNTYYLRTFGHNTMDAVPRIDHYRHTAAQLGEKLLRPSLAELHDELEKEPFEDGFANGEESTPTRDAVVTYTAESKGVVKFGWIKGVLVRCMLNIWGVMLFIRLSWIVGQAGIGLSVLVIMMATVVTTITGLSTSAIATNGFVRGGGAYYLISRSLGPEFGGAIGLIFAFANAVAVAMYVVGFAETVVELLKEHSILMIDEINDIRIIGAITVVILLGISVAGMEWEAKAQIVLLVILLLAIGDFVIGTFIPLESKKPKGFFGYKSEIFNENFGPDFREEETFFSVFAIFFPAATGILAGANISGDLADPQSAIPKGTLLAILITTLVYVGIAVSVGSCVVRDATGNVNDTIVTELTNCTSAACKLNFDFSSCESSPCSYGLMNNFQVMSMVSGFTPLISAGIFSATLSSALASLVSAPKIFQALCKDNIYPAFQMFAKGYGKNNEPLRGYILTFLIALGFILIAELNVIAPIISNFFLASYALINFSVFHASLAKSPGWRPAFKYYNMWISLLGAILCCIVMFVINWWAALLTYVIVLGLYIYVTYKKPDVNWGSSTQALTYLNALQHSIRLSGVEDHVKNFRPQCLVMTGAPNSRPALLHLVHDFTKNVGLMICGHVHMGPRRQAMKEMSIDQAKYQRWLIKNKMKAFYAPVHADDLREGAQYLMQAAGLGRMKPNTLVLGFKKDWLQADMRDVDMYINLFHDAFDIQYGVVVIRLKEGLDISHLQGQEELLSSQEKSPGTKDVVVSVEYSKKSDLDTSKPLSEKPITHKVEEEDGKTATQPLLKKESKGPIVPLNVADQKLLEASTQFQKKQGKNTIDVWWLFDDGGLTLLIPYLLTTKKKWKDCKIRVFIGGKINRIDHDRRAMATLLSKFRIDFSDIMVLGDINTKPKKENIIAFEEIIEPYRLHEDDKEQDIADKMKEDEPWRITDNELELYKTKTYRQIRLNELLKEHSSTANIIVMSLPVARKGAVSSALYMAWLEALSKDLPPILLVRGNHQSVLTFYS

[2] = molecular target: T2, mouse KCC2 (mKCC2a, SLC12A5), twin-Strep tagged, as prepared for cryo-EM (mouse), Q91V14; test: as above; details: remark: other sources report otherwise
T2 chain: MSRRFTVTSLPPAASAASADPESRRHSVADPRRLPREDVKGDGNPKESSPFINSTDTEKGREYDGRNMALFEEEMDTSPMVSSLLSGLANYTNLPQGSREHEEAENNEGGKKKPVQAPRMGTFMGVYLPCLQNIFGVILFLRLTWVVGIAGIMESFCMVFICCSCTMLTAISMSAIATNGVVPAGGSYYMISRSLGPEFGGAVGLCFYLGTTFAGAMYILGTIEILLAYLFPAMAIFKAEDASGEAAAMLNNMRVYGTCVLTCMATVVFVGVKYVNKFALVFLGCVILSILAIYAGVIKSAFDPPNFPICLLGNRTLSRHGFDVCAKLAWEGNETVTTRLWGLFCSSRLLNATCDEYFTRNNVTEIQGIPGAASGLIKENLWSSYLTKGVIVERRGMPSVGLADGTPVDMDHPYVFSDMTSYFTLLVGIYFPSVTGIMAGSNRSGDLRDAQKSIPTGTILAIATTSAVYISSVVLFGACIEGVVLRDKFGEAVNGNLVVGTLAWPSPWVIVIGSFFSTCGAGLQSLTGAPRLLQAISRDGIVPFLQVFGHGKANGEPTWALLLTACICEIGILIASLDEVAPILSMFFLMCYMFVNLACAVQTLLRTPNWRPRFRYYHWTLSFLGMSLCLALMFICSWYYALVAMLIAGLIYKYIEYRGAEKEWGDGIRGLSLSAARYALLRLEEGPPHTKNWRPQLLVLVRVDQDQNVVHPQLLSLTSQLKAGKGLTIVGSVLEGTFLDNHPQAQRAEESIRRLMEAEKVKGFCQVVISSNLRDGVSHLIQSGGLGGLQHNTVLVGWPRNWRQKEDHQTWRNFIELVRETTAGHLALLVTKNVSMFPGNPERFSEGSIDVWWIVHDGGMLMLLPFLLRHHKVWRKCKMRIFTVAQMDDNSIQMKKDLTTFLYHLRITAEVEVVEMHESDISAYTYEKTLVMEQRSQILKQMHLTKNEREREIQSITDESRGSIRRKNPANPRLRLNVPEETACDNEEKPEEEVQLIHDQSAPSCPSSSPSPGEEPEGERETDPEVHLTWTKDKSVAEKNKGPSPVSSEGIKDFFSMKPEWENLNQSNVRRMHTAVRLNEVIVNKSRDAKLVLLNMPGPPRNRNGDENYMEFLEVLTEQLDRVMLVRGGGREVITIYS

Binder	stoichiometry N [1]	stoichiometry N [2]
human NKCC1 (hNKCC1a, SLC12A2), twin-Strep tagged, as prepared for cryo-EM, P55011 1-1212 (natural protein) MEPRPTAPSSGAPGLAGVGETPSAAALAAARVELPGTAVPSVPEDAAPASRDGGGVRDEGPAAAGDGLGRPLGPTPSQSRFQVDLVSENAGRAAAAAAAAAAAAAAAGAGAGAKQTPADGEASGESEPAKGSEEAKGRFRVNFVDPAASSSAEDSLSDAAGVGVDGPNVSFQNGGDTVLSEGSSLHSGGGGGSGHHQHYYYDTHTNTYYLRTFGHNTMDAVPRIDHYRHTAAQLGEKLLRPSLAELHDELEKEPFEDGFANGEESTPTRDAVVTYTAESKGVVKFGWIKGVLVRCMLNIWGVMLFIRLSWIVGQAGIGLSVLVIMMATVVTTITGLSTSAIATNGFVRGGGAYYLISRSLGPEFGGAIGLIFAFANAVAVAMYVVGFAETVVELLKEHSILMIDEINDIRIIGAITVVILLGISVAGMEWEAKAQIVLLVILLLAIGDFVIGTFIPLESKKPKGFFGYKSEIFNENFGPDFREEETFFSVFAIFFPAATGILAGANISGDLADPQSAIPKGTLLAILITTLVYVGIAVSVGSCVVRDATGNVNDTIVTELTNCTSAACKLNFDFSSCESSPCSYGLMNNFQVMSMVSGFTPLISAGIFSATLSSALASLVSAPKIFQALCKDNIYPAFQMFAKGYGKNNEPLRGYILTFLIALGFILIAELNVIAPIISNFFLASYALINFSVFHASLAKSPGWRPAFKYYNMWISLLGAILCCIVMFVINWWAALLTYVIVLGLYIYVTYKKPDVNWGSSTQALTYLNALQHSIRLSGVEDHVKNFRPQCLVMTGAPNSRPALLHLVHDFTKNVGLMICGHVHMGPRRQAMKEMSIDQAKYQRWLIKNKMKAFYAPVHADDLREGAQYLMQAAGLGRMKPNTLVLGFKKDWLQADMRDVDMYINLFHDAFDIQYGVVVIRLKEGLDISHLQGQEELLSSQEKSPGTKDVVVSVEYSKKSDLDTSKPLSEKPITHKVEEEDGKTATQPLLKKESKGPIVPLNVADQKLLEASTQFQKKQGKNTIDVWWLFDDGGLTLLIPYLLTTKKKWKDCKIRVFIGGKINRIDHDRRAMATLLSKFRIDFSDIMVLGDINTKPKKENIIAFEEIIEPYRLHEDDKEQDIADKMKEDEPWRITDNELELYKTKTYRQIRLNELLKEHSSTANIIVMSLPVARKGAVSSALYMAWLEALSKDLPPILLVRGNHQSVLTFYS	2	
mouse KCC2 (mKCC2a, SLC12A5), twin-Strep tagged, as prepared for cryo-EM, Q91V14 1-1138 (natural protein, here or on the partner: phosphorylation at T929 and T1029 (confirmed by mass spectrometry); phosphorylation at T929 and T1029 (confirmed by mass spectrometry)) MSRRFTVTSLPPAASAASADPESRRHSVADPRRLPREDVKGDGNPKESSPFINSTDTEKGREYDGRNMALFEEEMDTSPMVSSLLSGLANYTNLPQGSREHEEAENNEGGKKKPVQAPRMGTFMGVYLPCLQNIFGVILFLRLTWVVGIAGIMESFCMVFICCSCTMLTAISMSAIATNGVVPAGGSYYMISRSLGPEFGGAVGLCFYLGTTFAGAMYILGTIEILLAYLFPAMAIFKAEDASGEAAAMLNNMRVYGTCVLTCMATVVFVGVKYVNKFALVFLGCVILSILAIYAGVIKSAFDPPNFPICLLGNRTLSRHGFDVCAKLAWEGNETVTTRLWGLFCSSRLLNATCDEYFTRNNVTEIQGIPGAASGLIKENLWSSYLTKGVIVERRGMPSVGLADGTPVDMDHPYVFSDMTSYFTLLVGIYFPSVTGIMAGSNRSGDLRDAQKSIPTGTILAIATTSAVYISSVVLFGACIEGVVLRDKFGEAVNGNLVVGTLAWPSPWVIVIGSFFSTCGAGLQSLTGAPRLLQAISRDGIVPFLQVFGHGKANGEPTWALLLTACICEIGILIASLDEVAPILSMFFLMCYMFVNLACAVQTLLRTPNWRPRFRYYHWTLSFLGMSLCLALMFICSWYYALVAMLIAGLIYKYIEYRGAEKEWGDGIRGLSLSAARYALLRLEEGPPHTKNWRPQLLVLVRVDQDQNVVHPQLLSLTSQLKAGKGLTIVGSVLEGTFLDNHPQAQRAEESIRRLMEAEKVKGFCQVVISSNLRDGVSHLIQSGGLGGLQHNTVLVGWPRNWRQKEDHQTWRNFIELVRETTAGHLALLVTKNVSMFPGNPERFSEGSIDVWWIVHDGGMLMLLPFLLRHHKVWRKCKMRIFTVAQMDDNSIQMKKDLTTFLYHLRITAEVEVVEMHESDISAYTYEKTLVMEQRSQILKQMHLTKNEREREIQSITDESRGSIRRKNPANPRLRLNVPEETACDNEEKPEEEVQLIHDQSAPSCPSSSPSPGEEPEGERETDPEVHLTWTKDKSVAEKNKGPSPVSSEGIKDFFSMKPEWENLNQSNVRRMHTAVRLNEVIVNKSRDAKLVLLNMPGPPRNRNGDENYMEFLEVLTEQLDRVMLVRGGGREVITIYS		2
